This assay addresses HA1.7 TCR-β chain (human). The experiment in a line: co-IP.

Broadly, the stoichiometry N is a count of units in the complex or per binding partner. HA1.7 TCR-α chain: the stoichiometry N is 1.

The record behind these values is article PMC2198996.
